“Also recorded” adds a separate entry of the source.
Tested on: 3D human trabecular meshwork (HTM) cells co-cultured with human Schlemms' canal (HSC) cells
Experiment: Outflow facility in bioengineered 3D HTM/HSC ex vivo human eye tissue model, ANGPTL7 or dexamethasone
Format: cell-based
Details: 3D-HTM donors; 500 nM Dexamethasone or 50 ng/mL ANGPTL7 vs vehicle (DMSO)
Experimental: Experiments were conducted to determine the effects of ANGPTL7 on outflow facility in a bioengineered ex vivo human eye tissue model. Glauconix developed a proprietary technology allowing multi-layer growth of bioengineered 3D human trabecular meshwork (HTM) cells co-cultured with human Schlemms' canal (HSC) cells, thereby mimicking the architecture of the tissues responsible for pressure build-up in the human eye (FIG. 3A). This allows endpoint analyses relevant to IOP-modulation. This scaffolding of cells is used to compare treatment effects of vehicle (DMSO), dexamethasone (a steroid known to elevate IOP), and human ANGPTL7 protein on outflow facility.
Briefly, HTM cells were thawed and allowed to grow for about 7 days (media changes every 2 days). The HTM cells were seeded onto scaffolds and HSC cells were thawed on the same day; the HTM cells were allowed to grow for 7 days on the scaffolds with media changes every 2 days. HSCs were co-cultured on the back side of the HTM scaffolds and grown for 10-12 days with media changes every 2 days. […]
Samples were analyzed using One-way ANOVA (GraphPad Prism Software, Inc., La Jolla, CA), *P<0.05, **P<0.0.01, ***P<0.001 N=4 per treatment group. […] […]

B1: ANGPTL7: human ANGPTL7 protein (angiopoietin-related protein 7), made by Biortus, used as treatment at 50 ng/mL (protein)
chain: QKLSKHKTPAQPQLKAANCCEEVKELKAQVANLSSLLSELNKKQERDWVSVVMQVMELESNSKRMESRLTDAESKYSEMNNQIDIMQLQAAQTVTQTSADAIYDCSSLYQKNYRISGVYKLPPDDFLGSPELEVFCDMETSGGGWTIIQRRKSGLVSFYRDWKQYKQGFGSIRGDFWLGNEHIHRLSRQPTRLRVEMEDWEGNLRYAEYSHFVLGNELNSYRLFLGNYTGNVGNDALQYHNNTAFSTKDKDNDNCLDKCAQLRKGGYWYNCCTDSNLNGVYYRLGEHNKHLDGITWYGWHGSTYSLKRVEMKIRPEDFKP
  outflow facility: reduced outflow facility; also recorded: significantly decreased outflow facility

Source: patent US20250296996A1, “ANGIOPOIETIN-RELATED PROTEIN 7-SPECIFIC ANTIBODIES AND USES THEREOF” (Broadwing Bio, Inc., priority 2022, published 2025)
